Source: article PMC6760448, “The DRS–AIMP2–EPRS subcomplex acts as a pivot in the multi-tRNA synthetase complex” (IUCrJ, 2019)

T1: N-terminally truncated human AIMP2 splice variant lacking exon 2 (residues Ser34–Gln45 and Asp115–Lys320) (human, UniProt Q13155 34-45; Q13155 115-320)
T1 construct: human AIMP2, residues Asp115–Lys320 (exons 3 and 4, GST domain); joined directly to Gln45 as in the splice variant AIMP2-DX2 that lacks exon 2; also called AIMP2-DX2-S34; AIMP2GST; source: E. coli BL21-CodonPlus (DE3)-RIPL; culture pooled with those of the partners, co-purified (HiTrap Chelating HP, Superdex 200); not shown: His6, C-terminal, kept
T1 sequence (looked up): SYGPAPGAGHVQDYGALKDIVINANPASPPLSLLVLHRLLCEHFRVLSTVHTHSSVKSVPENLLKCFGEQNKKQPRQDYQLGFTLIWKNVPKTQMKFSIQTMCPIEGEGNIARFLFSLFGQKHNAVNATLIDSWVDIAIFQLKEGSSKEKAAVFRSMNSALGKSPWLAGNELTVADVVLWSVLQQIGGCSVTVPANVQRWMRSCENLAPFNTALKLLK


Key:
[1] = biological target: T1, N-terminally truncated human AIMP2 …; experiment: SEC; separately transformed strains pooled in one culture, proteins met on cell disruption by sonication; His6 affinity (HiTrap Chelating HP), then HiLoad 16/600 Superdex 200 pg in 50 mM HEPES–NaOH pH 8.0, 200 mM NaCl, 5 mM DTT, 1% glycerol; SDS–PAGE of the highest peak; settings: partners not purified
[2] = biological target: the molecule itself; experiment: crystal structure; DRS–AIMP2-DX2-S34–EPRSGST (DA2E) subcomplex, 3.6 Å, space group P6_(1), two subcomplexes in the asymmetric unit; crystals at 22°C from sodium/potassium phosphate, 0.1 M CAPS pH 10.5, lithium sulfate

| binding result [1] | Binder | binding result [2] |
| --- | --- | --- |
| binds | C-terminally truncated human EPRSGST (Met1–Gln157) (domain or fragment, UniProt P07814 1-157, looked up, human glutamyl-prolyl-tRNA synthetase (EPRS), GST domain, residues Met1–Gln157; also called GST domain of glutamyl-prolyl-tRNA synthetase; source: E. coli BL21-CodonPlus (DE3)-RIPL; culture pooled with those of the partners, co-purified (HiTrap Chelating HP, Superdex 200); not shown: His6, C-terminal, kept) MATLSLTVNSGDPPLGALLAVEHVKDDVSISVEEGKENILHVSENVIFTDVNSILRYLARVATTAGLYGSNLMEHTEIDHWLEFSATKLSSCDSFTSTINELNHCLSLRTYLVGNSLSLADLCVWATLKGNAAWQEQLKQKKAPVHVKRWFGFLEAQ |  |
|  | N-terminally truncated human aspartyl-tRNA synthetase (residues Ala21–Pro501) (enzyme, UniProt P14868 21-501, looked up, human aspartyl-tRNA synthetase (DRS), cytosolic, residues Ala21–Pro501; Homodimer in the crystal structure of the DA2E subcomplex; No removal of the His6 tag is described; also called DRS; source: E. coli Rosetta2 (DE3)pLysS; culture pooled with those of the partners, co-purified (HiTrap Chelating HP, Superdex 200); not shown: His6, N-terminal, kept) AEDYAKERYGISSMIQSQEKPDRVLVRVRDLTIQKADEVVWVRARVHTSRAKGKQCFLVLRQQQFNVQALVAVGDHASKQMVKFAANINKESIVDVEGVVRKVNQKIGSCTQQDVELHVQKIYVISLAEPRLPLQLDDAVRPEAEGEEEGRATVNQDTRLDNRVIDLRTSTSQAVFRLQSGICHLFRETLINKGFVEIQTPKIISAASEGGANVFTVSYFKNNAYLAQSPQLYKQMCICADFEKVFSIGPVFRAEDSNTHRHLTEFVGLDIEMAFNYHYHEVMEEIADTMVQIFKGLQERFQTEIQTVNKQFPCEPFKFLEPTLRLEYCEALAMLREAGVEMGDEDDLSTPNEKLLGHLVKEKYDTDFYILDKYPLAVRPFYTMPDPRNPKQSNSYDMFMRGEEILSGAQRIHDPQLLTERALHHGIDLEKIKAYIDSFRFGAPPHAGGGIGLERVTMLFLGLHNVRQTSMFPRDPKRLTP | binds |
